In the experiment the target is authentic wild-type SARS-CoV 3C-like protease (3CLpro) (SARS-CoV) (UniProt P0C6X7). Kind of experiment: ITC.

“authentic wild-type SARS-CoV 3C-like protease (3CLpro) (from UniProt P0C6X7 3241-3546) (enzyme)” returned a Kd of 21.4 µM.
